# The supplement of paper PMC10567573
# B1: KCTD10 (parent)
# chain: SSKEEQKLIATSNKPAVKLLYNRS
# B2: KCNG1 (parent)
# chain: AVNLSVSTLPSLREEEEQVRAHAP
# Variants of: B1
# Assay: protein stability index of a GFP-peptide fusion (GPS, HEK-293T) (PSI 1-6); higher = more stable
# Settings: c terminus: a fixed tail appended
# 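Note: lentivirally expressed fusions sorted by FACS into six bins by GFP to DsRed ratio, PSI derived from sequencing read proportions per bin multiplied by bin number.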
row,Variant,protein stability index
1,SIKEEQKLIATSNKPAVKLLYNRS,3.88
2,SNKEEQKLIATSNKPAVKLLYNRS,4.16
3,STKEEQKLIATSNKPAVKLLYNRS,3.86
4,SLKEEQKLIATSNKPAVKLLYNRS,3.79
5,SKKEEQKLIATSNKPAVKLLYNRS,3.97
6,SWKEEQKLIATSNKPAVKLLYNRS,3.26
7,SQKEEQKLIATSNKPAVKLLYNRS,4.25
8,SMKEEQKLIATSNKPAVKLLYNRS,4.13
9,SPKEEQKLIATSNKPAVKLLYNRS,4.45
10,SRKEEQKLIATSNKPAVKLLYNRS,4.07
11,SYKEEQKLIATSNKPAVKLLYNRS,3.56
12,SCKEEQKLIATSNKPAVKLLYNRS,2.83
13,SEKEEQKLIATSNKPAVKLLYNRS,4.43
14,SFKEEQKLIATSNKPAVKLLYNRS,3.57
15,SVKEEQKLIATSNKPAVKLLYNRS,3.5
16,SDKEEQKLIATSNKPAVKLLYNRS,4.55
17,SGKEEQKLIATSNKPAVKLLYNRS,4.25
18,SAKEEQKLIATSNKPAVKLLYNRS,4.54
19,SHKEEQKLIATSNKPAVKLLYNRS,3.99
20,SSKVEQKLIATSNKPAVKLLYNRS,3.5
21,SSKPEQKLIATSNKPAVKLLYNRS,3.64
22,SSKSEQKLIATSNKPAVKLLYNRS,3.99
23,SSKDEQKLIATSNKPAVKLLYNRS,4.01
24,SSKYEQKLIATSNKPAVKLLYNRS,2.83
25,SSKFEQKLIATSNKPAVKLLYNRS,3.6

row,Variant,protein stability index
1,SSKIEQKLIATSNKPAVKLLYNRS,3.06
2,SSKLEQKLIATSNKPAVKLLYNRS,3.52
3,SSKQEQKLIATSNKPAVKLLYNRS,4.06
4,SSKAEQKLIATSNKPAVKLLYNRS,3.3
5,SSKKEQKLIATSNKPAVKLLYNRS,3.69
6,SSKMEQKLIATSNKPAVKLLYNRS,2.82
7,SSKWEQKLIATSNKPAVKLLYNRS,3.24
8,SSKHEQKLIATSNKPAVKLLYNRS,3.09
9,SSKCEQKLIATSNKPAVKLLYNRS,3.55
10,SSKNEQKLIATSNKPAVKLLYNRS,3.87
11,SSKGEQKLIATSNKPAVKLLYNRS,3.46
12,SSKREQKLIATSNKPAVKLLYNRS,3.66
13,SSKTEQKLIATSNKPAVKLLYNRS,3.26
14,SSKEFQKLIATSNKPAVKLLYNRS,2.26
15,SSKEDQKLIATSNKPAVKLLYNRS,4.13
16,SSKESQKLIATSNKPAVKLLYNRS,3.87
17,SSKERQKLIATSNKPAVKLLYNRS,3.59
18,SSKEHQKLIATSNKPAVKLLYNRS,3.78
19,SSKEYQKLIATSNKPAVKLLYNRS,2.97
20,SSKEMQKLIATSNKPAVKLLYNRS,2.97
21,SSKENQKLIATSNKPAVKLLYNRS,3.7
22,SSKEVQKLIATSNKPAVKLLYNRS,2.8
23,SSKETQKLIATSNKPAVKLLYNRS,3.82
24,SSKECQKLIATSNKPAVKLLYNRS,3.34
25,SSKEPQKLIATSNKPAVKLLYNRS,3.56

row,Variant,protein stability index
1,SSKELQKLIATSNKPAVKLLYNRS,2.83
2,SSKEWQKLIATSNKPAVKLLYNRS,1.79
3,SSKEKQKLIATSNKPAVKLLYNRS,3.35
4,SSKEGQKLIATSNKPAVKLLYNRS,1.71
5,SSKEAQKLIATSNKPAVKLLYNRS,3.38
6,SSKEIQKLIATSNKPAVKLLYNRS,2.97
7,SSKEQQKLIATSNKPAVKLLYNRS,3.83
8,SSKEEDKLIATSNKPAVKLLYNRS,4.5
9,SSKEEAKLIATSNKPAVKLLYNRS,4.23
10,SSKEEEKLIATSNKPAVKLLYNRS,4.52
11,SSKEECKLIATSNKPAVKLLYNRS,4.15
12,SSSEEQKLIATSNKPAVKLLYNRS,3.58
13,SSGEEQKLIATSNKPAVKLLYNRS,3.32
14,SSEEEQKLIATSNKPAVKLLYNRS,4.16
15,SSNEEQKLIATSNKPAVKLLYNRS,4.04
16,SSQEEQKLIATSNKPAVKLLYNRS,4.25
17,SSDEEQKLIATSNKPAVKLLYNRS,4.5
18,SSHEEQKLIATSNKPAVKLLYNRS,4.23
19,SSVEEQKLIATSNKPAVKLLYNRS,3.96
20,SSMEEQKLIATSNKPAVKLLYNRS,4.08
21,SSFEEQKLIATSNKPAVKLLYNRS,3.83
22,SSTEEQKLIATSNKPAVKLLYNRS,4.18
23,SSREEQKLIATSNKPAVKLLYNRS,3.97
24,SSWEEQKLIATSNKPAVKLLYNRS,3.93
25,SSLEEQKLIATSNKPAVKLLYNRS,4.07

row,Variant,protein stability index
1,SSAEEQKLIATSNKPAVKLLYNRS,4.67
2,SSIEEQKLIATSNKPAVKLLYNRS,3.91
3,SSCEEQKLIATSNKPAVKLLYNRS,3.86
4,SSYEEQKLIATSNKPAVKLLYNRS,3.26
5,SSPEEQKLIATSNKPAVKLLYNRS,4.06
6,QSKEEQKLIATSNKPAVKLLYNRS,4.22
7,PSKEEQKLIATSNKPAVKLLYNRS,3.98
8,LSKEEQKLIATSNKPAVKLLYNRS,3.69
9,TSKEEQKLIATSNKPAVKLLYNRS,4.1
10,FSKEEQKLIATSNKPAVKLLYNRS,3.6
11,RSKEEQKLIATSNKPAVKLLYNRS,3.8
12,NSKEEQKLIATSNKPAVKLLYNRS,4.32
13,HSKEEQKLIATSNKPAVKLLYNRS,4.21
14,VSKEEQKLIATSNKPAVKLLYNRS,3.84
15,GSKEEQKLIATSNKPAVKLLYNRS,3.96
16,ISKEEQKLIATSNKPAVKLLYNRS,3.56
17,MSKEEQKLIATSNKPAVKLLYNRS,4.26
18,ASKEEQKLIATSNKPAVKLLYNRS,3.87
19,YSKEEQKLIATSNKPAVKLLYNRS,3.18
20,CSKEEQKLIATSNKPAVKLLYNRS,3.82
21,WSKEEQKLIATSNKPAVKLLYNRS,3.08
22,ESKEEQKLIATSNKPAVKLLYNRS,4.49
23,DSKEEQKLIATSNKPAVKLLYNRS,3.9
24,KSKEEQKLIATSNKPAVKLLYNRS,4.12

# Variants of: B2
# Assay: as above
# Settings: c terminus: a fixed tail appended
row,Variant,protein stability index
1,AVNLSVSTLPSLREEEEQVRAHAH,5.41
2,AVNLSVSTLPSLREEEEQVRAHAI,4.58
3,AVNLSVSTLPSLREEEEQVRAHAC,5.04
4,AVNLSVSTLPSLREEEEQVRAHAN,5.34
5,AVNLSVSTLPSLREEEEQVRAHAM,4.55
6,AVNLSVSTLPSLREEEEQVRAHAW,4
7,AVNLSVSTLPSLREEEEQVRAHAG,5.37
8,AVNLSVSTLPSLREEEEQVRAHAQ,5.23
9,AVNLSVSTLPSLREEEEQVRAHAD,5.57
10,AVNLSVSTLPSLREEEEQVRAHAY,4.41
11,AVNLSVSTLPSLREEEEQVRAHAK,4.92
12,AVNLSVSTLPSLREEEEQVRAHAT,5.36
13,AVNLSVSTLPSLREEEEQVRAHAV,5.11
14,AVNLSVSTLPSLREEEEQVRAHAE,5.61
15,AVNLSVSTLPSLREEEEQVRAHAR,5.08
16,AVNLSVSTLPSLREEEEQVRAHAL,4.94
17,AVNLSVSTLPSLREEEEQVRAHAF,4.42
18,AVNLSVSTLPSLREEEEQVRAHAA,5.57
19,AVNLSVSTLPSLREEEEQVRAHAS,4.84
20,AVNLSVSTLPSLREEEEQVRQHAP,5.25
21,AVNLSVSTLPSLREEEEQVRNHAP,4.28
22,AVNLSVSTLPSLREEEEQVRVHAP,4.36
23,AVNLSVSTLPSLREEEEQVRMHAP,4.27

row,Variant,protein stability index
1,AVNLSVSTLPSLREEEEQVRGHAP,5.13
2,AVNLSVSTLPSLREEEEQVRDHAP,5.32
3,AVNLSVSTLPSLREEEEQVREHAP,4.52
4,AVNLSVSTLPSLREEEEQVRYHAP,3.93
5,AVNLSVSTLPSLREEEEQVRFHAP,3.75
6,AVNLSVSTLPSLREEEEQVRRHAP,4.99
7,AVNLSVSTLPSLREEEEQVRHHAP,4.68
8,AVNLSVSTLPSLREEEEQVRSHAP,4.96
9,AVNLSVSTLPSLREEEEQVRPHAP,4.97
10,AVNLSVSTLPSLREEEEQVRKHAP,4.64
11,AVNLSVSTLPSLREEEEQVRTHAP,4.54
12,AVNLSVSTLPSLREEEEQVRIHAP,4.11
13,AVNLSVSTLPSLREEEEQVRCHAP,4.74
14,AVNLSVSTLPSLREEEEQVRLHAP,4.71
15,AVNLSVSTLPSLREEEEQVRWHAP,3.35
16,AVNLSVSTLPSLREEEEQVRAYAP,4.87
17,AVNLSVSTLPSLREEEEQVRAKAP,5.49
18,AVNLSVSTLPSLREEEEQVRAAAP,5.11
19,AVNLSVSTLPSLREEEEQVRANAP,5.26
20,AVNLSVSTLPSLREEEEQVRATAP,4.91
21,AVNLSVSTLPSLREEEEQVRAMAP,5.28
22,AVNLSVSTLPSLREEEEQVRACAP,4.92
23,AVNLSVSTLPSLREEEEQVRASAP,5.49

row,Variant,protein stability index
1,AVNLSVSTLPSLREEEEQVRAFAP,4.49
2,AVNLSVSTLPSLREEEEQVRALAP,4.83
3,AVNLSVSTLPSLREEEEQVRARAP,5.22
4,AVNLSVSTLPSLREEEEQVRAEAP,5.62
5,AVNLSVSTLPSLREEEEQVRAPAP,4.62
6,AVNLSVSTLPSLREEEEQVRAIAP,4.45
7,AVNLSVSTLPSLREEEEQVRAWAP,3.02
8,AVNLSVSTLPSLREEEEQVRAVAP,4.76
9,AVNLSVSTLPSLREEEEQVRADAP,5.01
10,AVNLSVSTLPSLREEEEQVRAQAP,4.57
11,AVNLSVSTLPSLREEEEQVRAGAP,5.29
12,AVNLSVSTLPSLREEEEQVSAHAP,4.75
13,AVNLSVSTLPSLREEEEQVIAHAP,5.14
14,AVNLSVSTLPSLREEEEQVPAHAP,5.17
15,AVNLSVSTLPSLREEEEQVTAHAP,5.27
16,AVNLSVSTLPSLREEEEQVLAHAP,5.37
17,AVNLSVSTLPSLREEEEQVYAHAP,4.75
18,AVNLSVSTLPSLREEEEQVVAHAP,4.94
19,AVNLSVSTLPSLREEEEQVQAHAP,5.12
20,AVNLSVSTLPSLREEEEQVNAHAP,5.3
21,AVNLSVSTLPSLREEEEQVKAHAP,5.17
22,AVNLSVSTLPSLREEEEQVHAHAP,5.06
23,AVNLSVSTLPSLREEEEQVMAHAP,5.2

row,Variant,protein stability index
1,AVNLSVSTLPSLREEEEQVWAHAP,4.55
2,AVNLSVSTLPSLREEEEQVRAHTP,4.87
3,AVNLSVSTLPSLREEEEQVRAHHP,4.87
4,AVNLSVSTLPSLREEEEQVRAHYP,4.3
5,AVNLSVSTLPSLREEEEQVRAHWP,4.32
6,AVNLSVSTLPSLREEEEQVRAHIP,4.82
7,AVNLSVSTLPSLREEEEQVRAHLP,5.02
8,AVNLSVSTLPSLREEEEQVRAHFP,4.1
9,AVNLSVSTLPSLREEEEQVRAHVP,5.07
10,AVNLSVSTLPSLREEEEQVRAHNP,5.26
11,AVNLSVSTLPSLREEEEQVRAHDP,5.3
12,AVNLSVSTLPSLREEEEQVRAHPP,5.29
13,AVNLSVSTLPSLREEEEQVRAHSP,5.2
14,AVNLSVSTLPSLREEEEQVRAHCP,4.86
15,AVNLSVSTLPSLREEEEQVRAHGP,5.71
16,AVNLSVSTLPSLREEEEQVRAHQP,5.27
17,AVNLSVSTLPSLREEEEQVRAHMP,4.83
18,AVNLSVSTLPSLREEEEQVRAHKP,5.1
19,AVNLSVSTLPSLREEEEQVRAHRP,5.04
20,AVNLSVSTLPSLREEEEQVRAHEP,4.82
